Assay results from patent US20230002496A1 (STAIDSON BEIJING BIOPHARMACEUTICALS, published 2023).

T1: human GM-CSFRα, full length on cells (human, UniProt P15509 23-400)
T1 sequence: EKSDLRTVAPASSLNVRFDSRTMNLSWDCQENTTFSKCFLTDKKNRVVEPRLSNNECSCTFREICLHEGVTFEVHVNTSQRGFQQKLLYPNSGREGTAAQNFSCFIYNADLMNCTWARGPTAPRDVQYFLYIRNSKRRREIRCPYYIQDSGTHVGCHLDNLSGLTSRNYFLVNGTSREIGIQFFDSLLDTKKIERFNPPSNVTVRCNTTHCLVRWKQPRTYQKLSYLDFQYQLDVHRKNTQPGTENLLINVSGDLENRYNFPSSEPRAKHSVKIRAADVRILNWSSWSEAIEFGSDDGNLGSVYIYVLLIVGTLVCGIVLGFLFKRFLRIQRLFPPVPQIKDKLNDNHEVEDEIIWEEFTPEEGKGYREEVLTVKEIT

B1: E35-scFv LG50H (scFv, V domains shown)
VH: QMQLVQSGAEVKKPGASVKVSCKVSGYTLTELSIHWVRQAPGKGLEWMGGFDPEDGETIYAQKFQGRVTMTGDTSTDTAYLELSSLRSEDTALYYCATGRYTSLATTYGFDYWGQGTLVTVSS
VL: EIVMTQSPATLSLSPGERATLSCRASQSVSSYLAWYQQKPGQAPRLLIYHASSRATGIPDRFSGSGSGTDFTLTISRLEPEDFAVYYCQQYDNWPYTFGQGTKLEIK
B2: E35-scFv LN93D (scFv, V domains shown)
VH: QMQLVQSGAEVKKPGASVKVSCKVSGYTLTELSIHWVRQAPGKGLEWMGGFDPEDGETIYAQKFQGRVTMTGDTSTDTAYLELSSLRSEDTALYYCATGRYTSLATTYGFDYWGQGTLVTVSS
VL: EIVMTQSPATLSLSPGERATLSCRASQSVSSYLAWYQQKPGQAPRLLIYGASSRATGIPDRFSGSGSGTDFTLTISRLEPEDFAVYYCQQYDDWPYTFGQGTKLEIK
B3: E35-scFv LG50E (scFv, V domains shown)
VH: QMQLVQSGAEVKKPGASVKVSCKVSGYTLTELSIHWVRQAPGKGLEWMGGFDPEDGETIYAQKFQGRVTMTGDTSTDTAYLELSSLRSEDTALYYCATGRYTSLATTYGFDYWGQGTLVTVSS
VL: EIVMTQSPATLSLSPGERATLSCRASQSVSSYLAWYQQKPGQAPRLLIYEASSRATGIPDRFSGSGSGTDFTLTISRLEPEDFAVYYCQQYDNWPYTFGQGTKLEIK
B4: E35-scFv LD92H (scFv, V domains shown)
VH: QMQLVQSGAEVKKPGASVKVSCKVSGYTLTELSIHWVRQAPGKGLEWMGGFDPEDGETIYAQKFQGRVTMTGDTSTDTAYLELSSLRSEDTALYYCATGRYTSLATTYGFDYWGQGTLVTVSS
VL: EIVMTQSPATLSLSPGERATLSCRASQSVSSYLAWYQQKPGQAPRLLIYGASSRATGIPDRFSGSGSGTDFTLTISRLEPEDFAVYYCQQYHNWPYTFGQGTKLEIK
B5: E35-scFv LD92T (scFv, V domains shown)
VH: QMQLVQSGAEVKKPGASVKVSCKVSGYTLTELSIHWVRQAPGKGLEWMGGFDPEDGETIYAQKFQGRVTMTGDTSTDTAYLELSSLRSEDTALYYCATGRYTSLATTYGFDYWGQGTLVTVSS
VL: EIVMTQSPATLSLSPGERATLSCRASQSVSSYLAWYQQKPGQAPRLLIYGASSRATGIPDRFSGSGSGTDFTLTISRLEPEDFAVYYCQQYTNWPYTFGQGTKLEIK
B6: E35-scFv LD92S (scFv, V domains shown)
VH: QMQLVQSGAEVKKPGASVKVSCKVSGYTLTELSIHWVRQAPGKGLEWMGGFDPEDGETIYAQKFQGRVTMTGDTSTDTAYLELSSLRSEDTALYYCATGRYTSLATTYGFDYWGQGTLVTVSS
VL: EIVMTQSPATLSLSPGERATLSCRASQSVSSYLAWYQQKPGQAPRLLIYGASSRATGIPDRFSGSGSGTDFTLTISRLEPEDFAVYYCQQYSNWPYTFGQGTKLEIK
B7: E35-scFv HE31N (scFv, V domains shown)
VH: QMQLVQSGAEVKKPGASVKVSCKVSGYTLTNLSIHWVRQAPGKGLEWMGGFDPEDGETIYAQKFQGRVTMTGDTSTDTAYLELSSLRSEDTALYYCATGRYTSLATTYGFDYWGQGTLVTVSS
VL: EIVMTQSPATLSLSPGERATLSCRASQSVSSYLAWYQQKPGQAPRLLIYGASSRATGIPDRFSGSGSGTDFTLTISRLEPEDFAVYYCQQYDNWPYTFGQGTKLEIK
B8: E35-scFv LD92K (scFv, V domains shown)
VH: QMQLVQSGAEVKKPGASVKVSCKVSGYTLTELSIHWVRQAPGKGLEWMGGFDPEDGETIYAQKFQGRVTMTGDTSTDTAYLELSSLRSEDTALYYCATGRYTSLATTYGFDYWGQGTLVTVSS
VL: EIVMTQSPATLSLSPGERATLSCRASQSVSSYLAWYQQKPGQAPRLLIYGASSRATGIPDRFSGSGSGTDFTLTISRLEPEDFAVYYCQQYKNWPYTFGQGTKLEIK
B9: E35-scFv LD92P (scFv, V domains shown)
VH: QMQLVQSGAEVKKPGASVKVSCKVSGYTLTELSIHWVRQAPGKGLEWMGGFDPEDGETIYAQKFQGRVTMTGDTSTDTAYLELSSLRSEDTALYYCATGRYTSLATTYGFDYWGQGTLVTVSS
VL: EIVMTQSPATLSLSPGERATLSCRASQSVSSYLAWYQQKPGQAPRLLIYGASSRATGIPDRFSGSGSGTDFTLTISRLEPEDFAVYYCQQYPNWPYTFGQGTKLEIK
B10: E35-scFv LD92W (scFv, V domains shown)
VH: QMQLVQSGAEVKKPGASVKVSCKVSGYTLTELSIHWVRQAPGKGLEWMGGFDPEDGETIYAQKFQGRVTMTGDTSTDTAYLELSSLRSEDTALYYCATGRYTSLATTYGFDYWGQGTLVTVSS
VL: EIVMTQSPATLSLSPGERATLSCRASQSVSSYLAWYQQKPGQAPRLLIYGASSRATGIPDRFSGSGSGTDFTLTISRLEPEDFAVYYCQQYWNWPYTFGQGTKLEIK
B11: E35-scFv LD92Q (scFv, V domains shown)
VH: QMQLVQSGAEVKKPGASVKVSCKVSGYTLTELSIHWVRQAPGKGLEWMGGFDPEDGETIYAQKFQGRVTMTGDTSTDTAYLELSSLRSEDTALYYCATGRYTSLATTYGFDYWGQGTLVTVSS
VL: EIVMTQSPATLSLSPGERATLSCRASQSVSSYLAWYQQKPGQAPRLLIYGASSRATGIPDRFSGSGSGTDFTLTISRLEPEDFAVYYCQQYQNWPYTFGQGTKLEIK
B12: E35-scFv LD92A (scFv, V domains shown)
VH: QMQLVQSGAEVKKPGASVKVSCKVSGYTLTELSIHWVRQAPGKGLEWMGGFDPEDGETIYAQKFQGRVTMTGDTSTDTAYLELSSLRSEDTALYYCATGRYTSLATTYGFDYWGQGTLVTVSS
VL: EIVMTQSPATLSLSPGERATLSCRASQSVSSYLAWYQQKPGQAPRLLIYGASSRATGIPDRFSGSGSGTDFTLTISRLEPEDFAVYYCQQYANWPYTFGQGTKLEIK
B13: E35-scFv LD92L (scFv, V domains shown)
VH: QMQLVQSGAEVKKPGASVKVSCKVSGYTLTELSIHWVRQAPGKGLEWMGGFDPEDGETIYAQKFQGRVTMTGDTSTDTAYLELSSLRSEDTALYYCATGRYTSLATTYGFDYWGQGTLVTVSS
VL: EIVMTQSPATLSLSPGERATLSCRASQSVSSYLAWYQQKPGQAPRLLIYGASSRATGIPDRFSGSGSGTDFTLTISRLEPEDFAVYYCQQYLNWPYTFGQGTKLEIK
B14: E35-scFv LG50C (scFv, V domains shown)
VH: QMQLVQSGAEVKKPGASVKVSCKVSGYTLTELSIHWVRQAPGKGLEWMGGFDPEDGETIYAQKFQGRVTMTGDTSTDTAYLELSSLRSEDTALYYCATGRYTSLATTYGFDYWGQGTLVTVSS
VL: EIVMTQSPATLSLSPGERATLSCRASQSVSSYLAWYQQKPGQAPRLLIYCASSRATGIPDRFSGSGSGTDFTLTISRLEPEDFAVYYCQQYDNWPYTFGQGTKLEIK
B15: E35-scFv LD92M (scFv, V domains shown)
VH: QMQLVQSGAEVKKPGASVKVSCKVSGYTLTELSIHWVRQAPGKGLEWMGGFDPEDGETIYAQKFQGRVTMTGDTSTDTAYLELSSLRSEDTALYYCATGRYTSLATTYGFDYWGQGTLVTVSS
VL: EIVMTQSPATLSLSPGERATLSCRASQSVSSYLAWYQQKPGQAPRLLIYGASSRATGIPDRFSGSGSGTDFTLTISRLEPEDFAVYYCQQYMNWPYTFGQGTKLEIK
B16: E35-scFv LG50Y (scFv, V domains shown)
VH: QMQLVQSGAEVKKPGASVKVSCKVSGYTLTELSIHWVRQAPGKGLEWMGGFDPEDGETIYAQKFQGRVTMTGDTSTDTAYLELSSLRSEDTALYYCATGRYTSLATTYGFDYWGQGTLVTVSS
VL: EIVMTQSPATLSLSPGERATLSCRASQSVSSYLAWYQQKPGQAPRLLIYYASSRATGIPDRFSGSGSGTDFTLTISRLEPEDFAVYYCQQYDNWPYTFGQGTKLEIK
B17: E35-scFv LD92I (scFv, V domains shown)
VH: QMQLVQSGAEVKKPGASVKVSCKVSGYTLTELSIHWVRQAPGKGLEWMGGFDPEDGETIYAQKFQGRVTMTGDTSTDTAYLELSSLRSEDTALYYCATGRYTSLATTYGFDYWGQGTLVTVSS
VL: EIVMTQSPATLSLSPGERATLSCRASQSVSSYLAWYQQKPGQAPRLLIYGASSRATGIPDRFSGSGSGTDFTLTISRLEPEDFAVYYCQQYINWPYTFGQGTKLEIK
B18: E35-scFv LD92V (scFv, V domains shown)
VH: QMQLVQSGAEVKKPGASVKVSCKVSGYTLTELSIHWVRQAPGKGLEWMGGFDPEDGETIYAQKFQGRVTMTGDTSTDTAYLELSSLRSEDTALYYCATGRYTSLATTYGFDYWGQGTLVTVSS
VL: EIVMTQSPATLSLSPGERATLSCRASQSVSSYLAWYQQKPGQAPRLLIYGASSRATGIPDRFSGSGSGTDFTLTISRLEPEDFAVYYCQQYVNWPYTFGQGTKLEIK
B19: E35-scFv LD92G (scFv, V domains shown)
VH: QMQLVQSGAEVKKPGASVKVSCKVSGYTLTELSIHWVRQAPGKGLEWMGGFDPEDGETIYAQKFQGRVTMTGDTSTDTAYLELSSLRSEDTALYYCATGRYTSLATTYGFDYWGQGTLVTVSS
VL: EIVMTQSPATLSLSPGERATLSCRASQSVSSYLAWYQQKPGQAPRLLIYGASSRATGIPDRFSGSGSGTDFTLTISRLEPEDFAVYYCQQYGNWPYTFGQGTKLEIK
B20: E35-scFv LD92R (scFv, V domains shown)
VH: QMQLVQSGAEVKKPGASVKVSCKVSGYTLTELSIHWVRQAPGKGLEWMGGFDPEDGETIYAQKFQGRVTMTGDTSTDTAYLELSSLRSEDTALYYCATGRYTSLATTYGFDYWGQGTLVTVSS
VL: EIVMTQSPATLSLSPGERATLSCRASQSVSSYLAWYQQKPGQAPRLLIYGASSRATGIPDRFSGSGSGTDFTLTISRLEPEDFAVYYCQQYRNWPYTFGQGTKLEIK

biological target: T1, human GM-CSFRα, full length on cells; assay: cell-based or functional assay

| Binder | IC50, TF-1 cell proliferation [µg/mL] |
| --- | --- |
| B1 | 4.29 |
| B2 | 0.045 |
| B3 | 29.9 |
| B4 | 0.53 |
| B5 | 0.494 |
| B6 | 0.598 |
| B7 | 0.11 |
| B8 | 0.64 |
| B9 | 0.881 |
| B10 | 0.342 |
| B11 | 0.328 |
| B12 | 0.282 |
| B13 | 0.42 |
| B14 | 25.7 |
| B15 | 0.507 |
| B16 | 32 |
| B17 | 0.597 |
| B18 | 0.387 |
| B19 | 0.522 |
| B20 | 0.495 |
